The text below walks through data of patent US20030100049.

The series deals with Crosstide substrate peptide (UBI).

B1: MyrAkt3HA (full length human Akt3 fused to the myristylation signal from human Src at the N-terminus and to an HA-tag at the C-terminus) (protein)
chain: MGSNKSKPKDASQRRRSSDVTIVKEGWVQKRGEYIKNWRPRYFLLKTDGSFIGYKEKPQDVDLPYPLNNFSVAKCQLMKTERPKPNTFIIRCLQWTTVIERTFHVDTPEEREEWTEAIQAVADRLQRQEEERMNCSPTSQIDNIGEEEMDASTTHHKRKTMNDFDYLKLLGKGTFGKVILVREKASGKYYAMKILKKEVIIAKDEVAHTLTESRVLKNTRHPFLTSLKYSFQTKDRLCFVMEYVNGGELFFHLSRERVFSEDRTRFYGAEIVSALDYLHSGKIVYRDLKLENLMLDKDGHIKITDFGLCKEGITDAATMKTFCGTPEYLAPEVLEDNDYGRAVDWWGLGVVMYEMMCGRLPFYNQDHEKLFELILMEDIKFPRTLSSDAKSLLSGLLIKDPNKRLGGGPDDAKEIMRHSFFSGVNWQDVYDKKLVPPFKPQVTSETDTRYFDEEFTAQTITITPPEKCQQSDCGMLGNWKK
Regarding B1, the “Kinase activity of anti-HA immunopellets (32P incorporation into substrate peptide, scintillation counting)” value is “Kinase activity present in CMV6[MyrAkt3HA] transfected samples was 20 times higher than that present in cells transfected with the control vector CMV6”.
